Reference: paper PMC12494544 (The Journal of Biological Chemistry, 2025)

Target: the molecule itself
Assay: crystal structure; PseM (28-186) at 27 mg/ml; 0.1 M Mes monohydrate pH 7.0, 2.0 M NaCl, 1% benzamidine-HCl, 291 K; SAD, 2.0 Å, space group P4(3)2(1)2; homodimer in the asymmetric unit

B1: N-terminal-truncated PseM (residues from 28 to 186) (enzyme)
chain: STGDYWIVYGKGERYNNEVFVANATGILQQPKGIQSAQIIQLFEDRSMPTLTAYEVQFKCKERRVRFDNARAMRRIDNVITNVKTVDGWIDPEKYDYWLQRSFAFVCAPAIRDNNQMLPLGKMPIARMVQTVQAMFVELQGVQAKKQTMRDLDAMLGNE
notes: PseM (PA0989), P. aeruginosa, residues 28 to 186, without the N-terminal signal peptide
- stoichiometry N: 2
